Molecular target: rat brain farnesyl:protein transferase (rat) (UniProt Q04631)
Test: cell-based or functional assay

fold decline of affinity [fold]	fold decrease of affinity against CVIM, from the concentration required for 50% inhibition [fold]	concentration giving 50% inhibition [µM]	Substance
> 50	> 30		CVIM with lysine at the A2 position (peptide)
> 50			CVIM with glutamic acid at the A2 position (peptide)
	> 30	> 40	CVIM with lysine at the X position (peptide)
		> 40	CVIM with glutamic acid at the X position (peptide)
		> 40	CVIM with glycine at the X position (peptide)
